Reference: patent US20210015937A1

Molecular target: human LAG-3 expressed on cells (human) (UniProt P18627)
Test: cell-based or functional assay

Sequence of human LAG-3 expressed on cells (human) (P18627 23-525 limits assumed): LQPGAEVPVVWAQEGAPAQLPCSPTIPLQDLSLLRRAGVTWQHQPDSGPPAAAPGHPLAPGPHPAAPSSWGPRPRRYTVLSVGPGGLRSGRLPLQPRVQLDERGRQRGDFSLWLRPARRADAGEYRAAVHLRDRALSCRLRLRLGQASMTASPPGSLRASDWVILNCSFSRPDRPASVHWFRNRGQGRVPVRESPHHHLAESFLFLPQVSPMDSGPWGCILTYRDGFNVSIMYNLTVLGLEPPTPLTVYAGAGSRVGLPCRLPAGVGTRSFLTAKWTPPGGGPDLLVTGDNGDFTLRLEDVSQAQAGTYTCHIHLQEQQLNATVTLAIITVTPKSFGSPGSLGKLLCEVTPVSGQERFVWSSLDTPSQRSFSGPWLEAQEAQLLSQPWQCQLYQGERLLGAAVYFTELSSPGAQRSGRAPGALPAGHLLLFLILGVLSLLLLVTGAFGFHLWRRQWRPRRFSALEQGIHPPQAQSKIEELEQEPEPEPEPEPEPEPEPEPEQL

With “Human anti-LAG3 antibody (Relatlimab analogue)” as the substance, how does the EC50 (M), NFAT-Luciferase Reporter Gene assay (LAG-3:MHCII) read?
Its EC50 (M), NFAT-Luciferase Reporter Gene assay (LAG-3:MHCII) is 4e-09 M.

Mouse anti-LAG3 antibody clone 17B4 was tested. Which EC50 (M), NFAT-Luciferase Reporter Gene assay (LAG-3:MHCII) did it give?
The EC50 (M), NFAT-Luciferase Reporter Gene assay (LAG-3:MHCII) was 3.2e-08 M.
